Key:
[1] = molecular target: purified biotin-tagged human CD36 (human, UniProt P16671 30-439, limits assumed, biotin tag, site not stated); test: AlphaScreen competition; competitor 1G04 on acceptor beads;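 also: streptavidin donor beads excited at 680 nm release singlet oxygen, and the light signal needs a nearby acceptor bead, with 30 min donor-bead incubation at 25 °C in the dark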
[2] = molecular target: T1, human CD36 (on HEK 293 or SCC25 cells) (human, UniProt P16671 2-472); test: FACS, SCC25 cells stably overexpressing human CD36
T1 construct: Overexpressed transiently or stably on HEK 293 cells, or stably on SCC25 cells; also called huCD36
T1 sequence (P16671 2-472 limits assumed): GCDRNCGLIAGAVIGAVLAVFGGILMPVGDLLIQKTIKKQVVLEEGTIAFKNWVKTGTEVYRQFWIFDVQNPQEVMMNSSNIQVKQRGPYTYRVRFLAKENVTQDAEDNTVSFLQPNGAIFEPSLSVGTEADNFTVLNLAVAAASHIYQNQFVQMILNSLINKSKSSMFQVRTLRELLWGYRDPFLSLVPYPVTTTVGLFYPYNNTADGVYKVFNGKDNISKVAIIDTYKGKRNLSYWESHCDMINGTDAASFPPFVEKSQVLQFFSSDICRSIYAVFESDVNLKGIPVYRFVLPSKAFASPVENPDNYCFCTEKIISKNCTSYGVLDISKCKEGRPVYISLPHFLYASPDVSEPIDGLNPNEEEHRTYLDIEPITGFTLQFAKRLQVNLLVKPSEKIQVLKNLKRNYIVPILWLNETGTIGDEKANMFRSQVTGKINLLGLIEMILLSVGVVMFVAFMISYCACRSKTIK
Protocol: (§1) After transiently transfecting the HEK 293 cells with a CD36 expression construct, cells were treated with three-fold serial dilution of each candidate antibody (10 dilutions starting at 500 nM). […] After incubation with the cells, an anti-human fluorescently labelled antibody was added to the cell media, allowed to incubate further, and the unbound antibody was washed off of the cells. Subsequently, the cells were subjected to FACS analysis to determine antibody binding to the cells. The results were fitted to a sigmoidal titration curve. Using a nonlinear regression model, the EC₅₀ values for each antibody were calculated from the GeoMFI and MFI values using the log(agonist) versus response (four parameters) fitting on the data transformed according to X=Log[X] in GraphPad PRISM.

[3] = molecular target: T1, human CD36 (on HEK 293 or SCC25 cells); test: FACS, HEK 293 cells transiently overexpressing CD36;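 also: antibody binding to transfected cells detected by flow cytometry with a fluorescent anti-human secondary antibody, EC50 from a four-parameter sigmoidal fit of mean fluorescence intensity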
Protocol: as §1

[4] = molecular target: T2, mouse CD36 (on HEK 293 cells) (mouse, UniProt Q08857 1-472); test: as above
T2 construct: also called Murine CD36
T2 sequence (Q08857 whole entry): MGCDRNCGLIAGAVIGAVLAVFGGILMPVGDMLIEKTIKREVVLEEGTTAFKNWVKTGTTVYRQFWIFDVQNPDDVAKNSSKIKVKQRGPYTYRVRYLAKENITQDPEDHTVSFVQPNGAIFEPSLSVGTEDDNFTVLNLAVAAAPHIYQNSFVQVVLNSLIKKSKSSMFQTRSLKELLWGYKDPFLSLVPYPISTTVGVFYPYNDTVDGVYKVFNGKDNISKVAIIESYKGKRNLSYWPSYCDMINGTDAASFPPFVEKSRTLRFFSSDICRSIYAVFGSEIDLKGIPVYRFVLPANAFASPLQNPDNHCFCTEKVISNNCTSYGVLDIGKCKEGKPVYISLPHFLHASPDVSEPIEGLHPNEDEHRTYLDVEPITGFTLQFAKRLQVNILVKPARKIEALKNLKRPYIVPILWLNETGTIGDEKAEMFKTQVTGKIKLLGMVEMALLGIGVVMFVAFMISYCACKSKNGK
Protocol: as §1

[5] = molecular target: T3, nonhuman primate CD36 (on HEK 293 cells) (cynomolgus monkey / rhesus macaque, UniProt P16671 2-472 (human entry)); test: as above
T3 construct: also called non-human primate CD36 (cynomolgus)
T3 sequence (P16671 other isoform, or with tags, fused parts or gaps limits assumed): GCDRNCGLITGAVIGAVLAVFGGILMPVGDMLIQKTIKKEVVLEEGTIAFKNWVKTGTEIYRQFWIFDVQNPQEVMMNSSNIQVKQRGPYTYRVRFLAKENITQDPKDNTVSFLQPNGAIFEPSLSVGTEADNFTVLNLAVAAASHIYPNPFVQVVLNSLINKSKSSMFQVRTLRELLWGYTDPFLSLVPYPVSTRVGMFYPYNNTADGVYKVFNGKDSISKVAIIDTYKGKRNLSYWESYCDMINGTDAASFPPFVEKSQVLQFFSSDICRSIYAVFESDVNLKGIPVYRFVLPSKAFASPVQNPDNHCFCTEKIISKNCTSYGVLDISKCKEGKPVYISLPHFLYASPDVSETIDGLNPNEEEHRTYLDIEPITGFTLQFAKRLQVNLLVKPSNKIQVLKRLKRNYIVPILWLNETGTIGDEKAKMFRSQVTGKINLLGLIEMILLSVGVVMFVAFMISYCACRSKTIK
Protocol: as §1

[6] = molecular target: T1, human CD36 (on HEK 293 or SCC25 cells); test: cell-based or functional assay
[7] = molecular target: T1, human CD36 (on HEK 293 or SCC25 cells); test: cell-based or functional assay; remark: listed apart in the source
[8] = molecular target: T4, human CD36 (His-tagged) (human, UniProt P16671 30-439); test: SPR (Biacore T200), His-captured CD36, bivalent analyte model
T4 construct: not shown: His tag
T4 sequence (P16671 30-439 limits assumed): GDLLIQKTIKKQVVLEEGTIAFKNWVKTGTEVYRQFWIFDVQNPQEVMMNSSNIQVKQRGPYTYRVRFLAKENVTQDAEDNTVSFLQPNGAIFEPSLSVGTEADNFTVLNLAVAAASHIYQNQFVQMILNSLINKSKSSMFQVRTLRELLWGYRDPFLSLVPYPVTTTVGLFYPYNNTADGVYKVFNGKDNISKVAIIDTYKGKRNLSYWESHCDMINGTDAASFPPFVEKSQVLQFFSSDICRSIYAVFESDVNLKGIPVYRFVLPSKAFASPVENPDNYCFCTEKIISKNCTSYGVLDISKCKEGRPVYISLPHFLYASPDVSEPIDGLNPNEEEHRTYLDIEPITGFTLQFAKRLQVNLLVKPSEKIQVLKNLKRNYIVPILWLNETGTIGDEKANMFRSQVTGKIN

[9] = molecular target: T1, human CD36 (on HEK 293 or SCC25 cells); test: cell-based or functional assay; remark: listed apart in the source
For Percent Fatty Acid Uptake Inhibition in this document: test concentration or dose not given here.

Sequence of purified biotin-tagged human CD36 (P16671 30-439 limits assumed): as above

| Binder | EC50 [1] [nM] | EC50 [2] [nM] | EC50 [3] [nM] | EC50 [4] [nM] | EC50 [5] [nM] | IC50 of fatty acid uptake inhibition (BODIPY FL C16, HEK hCD36 cells) [6] [nM] | Percent Fatty Acid Uptake Inhibition [7] [%] | Kd [8] [nM] | koff [8] [s⁻¹] | kon [8] [M⁻¹ s⁻¹] | IC50 of oxLDL uptake inhibition (DiI-oxLDL, SCC25 cells) [9] [nM] |
| --- | --- | --- | --- | --- | --- | --- | --- | --- | --- | --- | --- |
| 32G04 (antibody, human IgG1, V domains shown, Chimeric: mouse variable regions on human IgG1 LALA (L234A/L235A); also called 032G04) VH: EEKLEESGGGLVQPGGSMKLSCVASGFTFSNYWMNWVRQSPEKGLEWVAEIRLKSNNYATHYAESVKGRFTISRDDSKSSVYLQMNNLRAEDTGIYYCTPLLLRWGQGTTLTVSS VL: ENVLTQSPAIMSASPGEKVTMTCRASSSLSSTYLHWYQQKSGASPKLWIYSTSNLASGVPARFSGSGSGTSYSLTISSVEAEDAATYYCQQYSGYPLTFGSGTKLEIK | 1.46 | 1.88 | 0.94 | 5.14 | 6.52 | 42 |  |  |  |  |  |
| 18G04 (antibody, human IgG1, V domains shown, Chimeric: mouse variable regions on human IgG1 LALA (L234A/L235A); also called 018G04) VH: EVQLQQSGPELVKPGASVKISCETSGHTFTEYTMHWVKQSHGKSLEWIGGIYPNNGATKYNQKFKGKATLTVDKSSSTAYMELRSLTSEDSAVYYCARDRYDVWFAYWGQGTLVTVSA VL: ETTVTQSPASLSMAIGEKVTIRCITSTDIDDDMNWYQQKPGEPPKLLISEGNTLRPGVPSRFSSSGYGTDFVFTIENLLSEDVADYYCLQSDNLPLTFGGGTKLEIK | 15.6 |  |  | 14.7 | 6.6 | 2.6 |  |  |  |  |  |
| 17G04 (antibody, human IgG1, V domains shown, Chimeric: mouse variable regions on human IgG1 LALA (L234A/L235A)) VH: EVQLQQSGPELVKPGASVKISCKTSGYTFTEYTMHWVKQSHGKSLEWIGGIYPYNGGTAYNQKFKNKATLTVDISSNTAYMALRSLASDDSAVYYCASDYFYGDGYPWFTYWGQGTLVTVSA VL: ETTVTQSPASLSVATGEKVTIRCITSTDIDDDMNWYQQRPGEPPNLLISEGNTLRPGVPSRFSSSGYGTDFVFTIENTLSEDVADYYCLQSDNLPFTFGSGTRLEIK | 0.52 |  | 1.25 | 9.31 | 4.03 |  |  |  |  |  |  |
| 5G04 (antibody, human IgG1, V domains shown, Chimeric: mouse variable regions on human IgG1 LALA (L234A/L235A); also called 05G04; 005G04) VH: QVQLQQSGAELVMPGASVKMSCKASGYTFTDYWMHWVKQRPGQGLEWIGAIDTSDSYTSYNQKFKGKATLTVDESSSTAYMQLSSLTSEDSAVYYCARDYYGSSTAWFAYWGQGTLVTVSA VL: ETTVTQSPASLSMAIGEKVTIRCITSTDIDDDMNWYQQKPGEPPKLLISEGNTLRPGVPSRFSSSGYGTDFVFTIDNMLSEDVADYYCLQSDNLPFTFGSGTKLEIK | 0.02 |  |  | 5.03 | 2.43 | > 1000 |  |  |  |  |  |
| 9G04 (antibody, human IgG1, V domains shown, Chimeric: mouse variable regions on human IgG1 LALA (L234A/L235A); also called 09G04; 009G04) VH: QVQLQQSGAELVRPGASVTLSCKASGYTFTDYEMHWVKQTPVHGLEWIGTVDPETGGTAFNQKFKDKASLTADKSSSTVYMELRSLTSEDSAVYYCSRGYGNYGAWFAYWGQGTLVTVSA VL: ETTVTQSPASLSVATGEKVTIRCITSTDIDDDMNWYQQKPGEPPKLLISEGNTLRPGVPSRFSSSGYGTDFVFTIENMLSEDVADYYCLQSDNLPFTFGSGTKLEIK | 2.06 | 0.41 | 0.5 | 12 | 13.9 | 170 | 41.1 |  |  |  |  |
| 28G04 (antibody, human IgG1, V domains shown, Chimeric: mouse variable regions on human IgG1 LALA (L234A/L235A); also called 028G04) VH: EVQLQQSGPELVKPGASVKISCKTSGYTFTEYTIHWVKQSHGKSLEWIGGIIPNNGGSSHKQNFKDKATLTVDKSSSTAYMELRSLTSEDSAVYYCARAGDYAFDYWGQGTTLTVSS VL: ETTVTQSPASLSMAIGEKVTIRCITSTDIDDDMNWYQQKPGEPPKLLISEGNTLRPGVPSRFSSSGYGTDFVFTIENMLSEDVADYYCLQSGTLPFTFGSGTKLEIK | 4.69 | 0.95 | 0.6 | 8.5 | 7.77 | 0.09 | 39.7 | 14 | 0.013 | 870000 | 1.67 |
| 7G04 (antibody, human IgG1, V domains shown, Chimeric: mouse variable regions on human IgG1 LALA (L234A/L235A); also called 07G04; 007G04) VH: QVQMKESGAELVRPGASVKLSCKALGYTFTDYEIQWVKQTPVHGLEWIGGIHPGSSGIVYNQKFKGKATLTADKSSSTAYMELSSLTSEDSAVYYCTRGGGYDGAWFAYWGQGSLVTVSA VL: ETTVTQSPASLSMAIGEKVTIRCITSTDIDDDMNWYQQKPGEPPKLLISEGNTLRPGVPSRFSSSGYGTDFVFTIENMLSEDVADYYCLQSDNLPFTFGSGTKLEIK | 0.95 | 0.68 | 0.48 | 3.73 | 4.16 | 1 | 37.4 | 4.9 | 0.0035 | 710000 | 0.27 |
| 21G04 (antibody, human IgG1, V domains shown, Chimeric: mouse variable regions on human IgG1 LALA (L234A/L235A)) VH: QVQLQQSGAELVKPGASVKLSCKASGYTFTSYWMHWVKQRPGQGLEWIGEIDPSDSHTNYNQKFKGKATLTVDKSSSTAYMQLSSLTSEDSAVYYCAPIYYGLDNWGQGTTLTVSS VL: ETTVTQSQKFMSTSVGDRVSVTCKASQNVGTNVAWYQQKPGQSPKALIYSASYRYSGVPDRFTGSGSGTDFTLTISNVQSEDLAEYFCQQYNSYPFTFGSGTKLEIK | 0.45 |  | 0.36 |  | 6.38 |  |  |  |  |  |  |
| 25G04 (antibody, human IgG1, V domains shown, Chimeric: mouse variable regions on human IgG1 LALA (L234A/L235A)) VH: EVQLQQSGAELVKPGASVKLSCKASGYTFTSYWMHWVKQRPGQGLEWIGEIDPSDSHANYNQKFKGKATLTVDKSSSTAYMQLSSLTSEDSAVYYCAPIYYGLDNWGQGTTLTVSS VL: DIVLTQSQKFMSTSVGDRVSVTCKASQNVGTNVAWYQQKPGQSPKALIYSASYRYSGVPDRFTGSGSGTDFTLTISNVQPEDLAEYFCQQYNSYPLTFGGGTKLEIK | 0.29 |  | 0.74 |  | 2.19 |  |  |  |  |  |  |

These reach a lower EC50 [5]. Values come first.

| EC50 [1] [nM] | EC50 [2] [nM] | EC50 [3] [nM] | EC50 [4] [nM] | EC50 [5] [nM] | IC50 of fatty acid uptake inhibition (BODIPY FL C16, HEK hCD36 cells) [6] [nM] | Percent Fatty Acid Uptake Inhibition [7] [%] | Kd [8] [nM] | koff [8] [s⁻¹] | kon [8] [M⁻¹ s⁻¹] | IC50 of oxLDL uptake inhibition (DiI-oxLDL, SCC25 cells) [9] [nM] | Binder |
| --- | --- | --- | --- | --- | --- | --- | --- | --- | --- | --- | --- |
| 0.78 | 0.39 | 0.31 | 1.2 | 0.67 | 3.9 | 43.8 |  |  |  |  | 12G04 (antibody, human IgG1, V domains shown, Chimeric: mouse variable regions on human IgG1 LALA (L234A/L235A); also called 012G04) VH: EVQLVESGGGLVQPGESLKLSCESNEYEFPSHDMSWVRKTPEKRLELVAAINSDGGYTYYPDTMERRFIISRDNTKKTLYLQMSSLRSEDTALYYCARHGYDYDEEGAWFAYWGQGTLVTVSA VL: ETTVTQSPASLSMAIGEKVTIRCITSTDIDDDMNWYQQKPGEPPKLLISEGNTLRPGVPSRFSSTGYGTDFVFSIENMLSEDVADYYCLQSDNLPFTFGSGTKLEIK |
|  | 3.3 | 0.77 | 16 | 1.48 | 33 |  |  |  |  |  | 10G04 (antibody, human IgG1, V domains shown, Chimeric: mouse variable regions on human IgG1 LALA (L234A/L235A); also called 010G04) VH: DVQLQESGPELVKPGASVKISCKASGYTFTDYNMHWVKQSHGKSLEWIGYIYPYNGGTGYNQKFKSKATLTVDNSSSTAYMELRSLTSEDSAVYYCARDGGYDVYFDYWGQGTTLTVSS VL: DVVMTQTPLSLPVSLGDQASISCRSSQSLVHSNGNTYLHWYLQKPGQSPKLLIYKVSNRFSGVPDRFSGSGSGTDFTLKISRVEAEDLGVYYCFQGSHVPWTFGGGTKLEIK |
| 0.28 |  | 0.3 |  | 1.69 | 1 |  |  |  |  |  | 23G04 (antibody, human IgG1, V domains shown, Chimeric: mouse variable regions on human IgG1 LALA (L234A/L235A); also called 023G04) VH: QVQLQQPGTELVKPGASVKLSCKASGYTFTSYWMHWVKQRPGQGLEWIGEIDPSDSHTNYNQKFKGKATLTVDKSSSTAYMQLSSLTSEDSAVYYCAPIYYGLDNWGQGTTLTVSS VL: DIVLTQSQKFMSTSVGDRVSVTCKASQNVGTNVAWYQQKPGQSPKALIYSASYRYSGVPDRFTGSGSGTDFTLTISNVQSEDLAEYFCQQYNSYPYTFGGGTKLEIK |
| 0.53 |  | 1.25 |  | 1.68 |  |  |  |  |  |  | 22G04 (antibody, human IgG1, V domains shown, Chimeric: mouse variable regions on human IgG1 LALA (L234A/L235A)) VH: QVQLQQPGAELVKPGASVKLSCKASGYTFTSYWMHWVKQRPGQGLEWIGEIDPSDSHANYNQKFKGKATLTVDKSSSTAYMQLSSLTSEDSAVYYCAPIHYGLDNWGQGTTLTVSS VL: DIVLTQSQKFMSTSVGDRVSVTCKASQNVGTNVAWYQQKPGQSPKALIYSASYRYSGVPDRFTGSGSGTDFTLTISNVQSEDLAEYFCQQYNSYPLTFGAGTKLELK |
| 0.29 |  | 0.26 |  | 0.81 |  |  |  |  |  |  | 24G04 (antibody, human IgG1, V domains shown, Chimeric: mouse variable regions on human IgG1 LALA (L234A/L235A)) VH: QVQLQQSGAELVKPGASVKLSCKASGYTFTSYWMHWVKQRPGQGLEWIGEIDPSDSHANYNQKFKGKATLTVDKSSSTAYMQLSSLTSEDSAVYYCAPIYYGLDNWGQGTTLTVSS VL: DIVMTQSQKFLSTSVGDRVSVTCKASQNVGTNVAWYQQKPGQSPKVLIYSASYRYSGVPDRFTGSGSGTDFTLTVSNVQSEDLAEYFCQQYNNYPLTFGAGTKLELK |
| 0.31 | 0.41 | 1.47 | 1.57 | 0.88 | 0.13 | 45.1 | 2.3 | 0.0072 | 3.1e+06 | 0.35 | 14G04 (antibody, human IgG1, V domains shown, Chimeric: mouse variable regions on human IgG1 LALA (L234A/L235A); also called 014G04) VH: QVQLQQSGAELVRSGASVRLSCTASGFNIKDYYIHWVKQRPEQGLEWIGWIDPENGDTEYAPRFQDKATMTADTSSNTAYLQLSSLTSEDTAVYYCNGWLLSGNGMDYWGQGTSVTVSS VL: DIVMTQSHKFMSTSVGDRVSITCKASQDVGTAVAWYQQKPGQSPKLLIYWASTRHTGVPDRFTGSGSGTDFTLTISNVQSEDLADYFCQQYSSYPTFGGGTKLEIK |
